# Assay results: patent US20180243365A1
# Biological target: TcdB2 toxin (recombinant, full length) (Clostridium difficile)
# Assay: SPR, TcdB2 immobilized, PepB2 injected; multivalent interaction, no affinity or rate constant determined
substance,measurement,value
PepB2 (Peptide 5; amino acids 1769-1787 of TcdB2),molecules of PepB2 calculated to bind a single molecule of TcdB (molecules of PepB2 per molecule of TcdB),250
